Results reported in article PMC11176775, “Impact of DNA ligase 1 and IIIα interactions with APE1 and polβ on the efficiency of base excision repair pathway at the downstream steps”.

T1: DNA ligase IIIα (LIGIIIα) (UniProt P49916-3 1-922)
T1 sequence: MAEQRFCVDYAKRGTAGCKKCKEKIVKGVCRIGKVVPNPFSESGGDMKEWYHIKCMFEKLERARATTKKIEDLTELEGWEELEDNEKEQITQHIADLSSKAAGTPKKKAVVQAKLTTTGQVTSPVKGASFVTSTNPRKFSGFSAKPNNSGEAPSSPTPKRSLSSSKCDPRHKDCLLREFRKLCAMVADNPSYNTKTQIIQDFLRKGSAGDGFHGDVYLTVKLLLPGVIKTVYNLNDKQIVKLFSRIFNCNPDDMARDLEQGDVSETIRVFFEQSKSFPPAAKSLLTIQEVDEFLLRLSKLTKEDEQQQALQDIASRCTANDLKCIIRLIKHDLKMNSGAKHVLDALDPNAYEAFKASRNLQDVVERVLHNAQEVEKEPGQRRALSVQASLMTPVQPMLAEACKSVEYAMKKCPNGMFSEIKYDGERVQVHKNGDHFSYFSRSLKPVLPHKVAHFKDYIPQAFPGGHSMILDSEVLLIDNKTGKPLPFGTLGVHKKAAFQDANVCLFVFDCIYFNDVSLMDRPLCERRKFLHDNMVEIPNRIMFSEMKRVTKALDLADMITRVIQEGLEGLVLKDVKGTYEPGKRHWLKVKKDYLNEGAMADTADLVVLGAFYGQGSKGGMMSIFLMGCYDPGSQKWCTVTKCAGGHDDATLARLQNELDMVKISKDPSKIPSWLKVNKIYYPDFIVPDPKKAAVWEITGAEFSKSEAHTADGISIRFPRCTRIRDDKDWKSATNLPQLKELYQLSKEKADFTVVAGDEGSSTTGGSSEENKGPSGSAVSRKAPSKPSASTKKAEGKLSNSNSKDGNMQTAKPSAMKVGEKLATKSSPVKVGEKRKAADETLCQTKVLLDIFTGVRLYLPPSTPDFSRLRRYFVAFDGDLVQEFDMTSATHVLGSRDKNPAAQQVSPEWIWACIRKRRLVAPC

B1: one-nucleotide gap DNA (template C) (dsDNA)
DNA 1: CATGGGCGGCATGAACC
DNA 2: GAGGCCCATCCTCACC
DNA 3: GGTGAGGATGGGCCTCCGGTTCATGCCGCCCATG
modifications: 5'-phosphate on S2 at the gap; 3'-OH on S1
B2: nick DNA (3'-dG:C) (dsDNA)
DNA 1: CATGGGCGGCATGAACCG
DNA 2: GAGGCCCATCCTCACC
DNA 3: B1 DNA 3
modifications: 5'-phosphate on strand 2 at the nick; 3'-OH on strand 1

Columns and labels:
[1] = biological target: apurinic/apyrimidinic endonuclease 1 (APE1) (UniProt P27695 1-318); assay: BLI; BLI (Octet QKe), 20 °C: polβ, APE1, LIGIIIα in 20 mM Hepes pH 7.4, 200 mM NaCl, 0.5% BSA, 0.05% Tween 20; LIG1 in 50 mM Tris-HCl pH 7.5, 100 mM KCl, 1 mM DTT; no Mg2+ listed; conditions: protein: recombinant, tags: His, strands 1 and 2 pair with strand 3, blunt outer ends
[2] = biological target: T2, DNA ligase 1 (LIG1) (UniProt P18858 1-919); assay: BLI; range given jointly for polβ, LIG1 and LIGIIIα; LIG1 buffer; BLI (Octet QKe), 20 °C: polβ, APE1, LIGIIIα in 20 mM Hepes pH 7.4, 200 mM NaCl, 0.5% BSA, 0.05% Tween 20; LIG1 in 50 mM Tris-HCl pH 7.5, 100 mM KCl, 1 mM DTT; no Mg2+ listed; conditions: protein: recombinant; tags: His; label: 3'-biotin on S2; 1-nt gap opposite template C; strands 1 and 2 pair with strand 3; blunt outer ends
[3] = biological target: T3, DNA polymerase beta (polβ) (UniProt P06746 1-335); assay: BLI; range given jointly for polβ, LIG1 and LIGIIIα; individual value only in figure; BLI (Octet QKe), 20 °C: polβ, APE1, LIGIIIα in 20 mM Hepes pH 7.4, 200 mM NaCl, 0.5% BSA, 0.05% Tween 20; LIG1 in 50 mM Tris-HCl pH 7.5, 100 mM KCl, 1 mM DTT; n
[4] = biological target: T1, DNA ligase IIIα (LIGIIIα); assay: BLI; range given jointly for polβ, LIG1 and LIGIIIα; individual value only in figure; BLI (Octet QKe), 20 °C: polβ, APE1, LIGIIIα in 20 mM Hepes pH 7.4, 200 mM NaCl, 0.5% BSA, 0.05% Tween 20; LIG1 in 50 mM Tris-HCl pH 7.5, 100 mM KCl, 1 mM DTT; no Mg2+ listed; conditions: protein: recombinant; tags: His; label: 3'-biotin on S2; 1-nt gap opposite template C; strands 1 and 2 pair with strand 3; blunt outer ends
[5] = biological target: T3, DNA polymerase beta (polβ); assay: BLI; BLI (Octet QKe), 20 °C: polβ, APE1, LIGIIIα in 20 mM Hepes pH 7.4, 200 mM NaCl, 0.5% BSA, 0.05% Tween 20; LIG1 in 50 mM Tris-HCl pH 7.5, 100 mM KCl, 1 mM DTT; n
[6] = biological target: T1, DNA ligase IIIα (LIGIIIα); assay: BLI; BLI (Octet QKe), 20 °C: polβ, APE1, LIGIIIα in 20 mM Hepes pH 7.4, 200 mM NaCl, 0.5% BSA, 0.05% Tween 20; LIG1 in 50 mM Tris-HCl pH 7.5, 100 mM KCl, 1 mM DTT; no Mg2+ listed; conditions: protein: recombinant; tags: His; label: 3'-biotin on strand 2; nicked duplex; strands 1 and 2 pair with strand 3; blunt outer ends
[7] = biological target: T2, DNA ligase 1 (LIG1); assay: BLI; LIG1 buffer; BLI (Octet QKe), 20 °C: polβ, APE1, LIGIIIα in 20 mM Hepes pH 7.4, 200 mM NaCl, 0.5% BSA, 0.05% Tween 20; LIG1 in 50 mM Tris-HCl pH 7.5, 100 mM KCl, 1 mM DTT; no Mg2+ listed; conditions: protein: recombinant; tags: His; label: 3'-biotin on strand 2; nicked duplex; strands 1 and 2 pair with strand 3; blunt outer ends

Binder | Kd ([1]; label: 3'-biotin on S2, 1-nt gap opposite template C) | Kd [2] | Kd [3] | Kd [4] | Kd [5] | Kd ([1]; label: 3'-biotin on strand 2, nicked duplex) | Kd [6] | Kd [7]
B1 | 70 nM | ~4.9 nM | ~4.9 nM | ~4.9 nM |  |  |  | 
B2 |  |  |  |  | ~20 nM | 200 nM | ~7 nM | 3 nM
